Results from patent publication US20080020399A1.

How the values were obtained:
[1] = molecular target: rat liver insulin receptor purified by wheat germ lectin affinity chromatography (rat) (UniProt P15127); assay: cell-based or functional assay
[2] = test system: biotinylated hIRS-1-p30 (domain D516-P777 of human IRS-1)
Chain of biotinylated hIRS-1-p30 (domain D516-P777 of human IRS-1) (chain, as listed by the source): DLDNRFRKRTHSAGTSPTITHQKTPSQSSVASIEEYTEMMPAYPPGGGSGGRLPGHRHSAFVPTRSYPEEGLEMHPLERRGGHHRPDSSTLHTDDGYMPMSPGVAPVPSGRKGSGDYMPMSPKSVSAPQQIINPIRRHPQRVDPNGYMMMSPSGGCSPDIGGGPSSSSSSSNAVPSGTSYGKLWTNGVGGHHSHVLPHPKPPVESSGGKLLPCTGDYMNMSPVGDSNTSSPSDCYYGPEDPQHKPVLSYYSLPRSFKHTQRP

Chain of rat liver insulin receptor purified by wheat germ lectin affinity chromatography (rat) (P15127 27-1383 limits assumed, form in doubt): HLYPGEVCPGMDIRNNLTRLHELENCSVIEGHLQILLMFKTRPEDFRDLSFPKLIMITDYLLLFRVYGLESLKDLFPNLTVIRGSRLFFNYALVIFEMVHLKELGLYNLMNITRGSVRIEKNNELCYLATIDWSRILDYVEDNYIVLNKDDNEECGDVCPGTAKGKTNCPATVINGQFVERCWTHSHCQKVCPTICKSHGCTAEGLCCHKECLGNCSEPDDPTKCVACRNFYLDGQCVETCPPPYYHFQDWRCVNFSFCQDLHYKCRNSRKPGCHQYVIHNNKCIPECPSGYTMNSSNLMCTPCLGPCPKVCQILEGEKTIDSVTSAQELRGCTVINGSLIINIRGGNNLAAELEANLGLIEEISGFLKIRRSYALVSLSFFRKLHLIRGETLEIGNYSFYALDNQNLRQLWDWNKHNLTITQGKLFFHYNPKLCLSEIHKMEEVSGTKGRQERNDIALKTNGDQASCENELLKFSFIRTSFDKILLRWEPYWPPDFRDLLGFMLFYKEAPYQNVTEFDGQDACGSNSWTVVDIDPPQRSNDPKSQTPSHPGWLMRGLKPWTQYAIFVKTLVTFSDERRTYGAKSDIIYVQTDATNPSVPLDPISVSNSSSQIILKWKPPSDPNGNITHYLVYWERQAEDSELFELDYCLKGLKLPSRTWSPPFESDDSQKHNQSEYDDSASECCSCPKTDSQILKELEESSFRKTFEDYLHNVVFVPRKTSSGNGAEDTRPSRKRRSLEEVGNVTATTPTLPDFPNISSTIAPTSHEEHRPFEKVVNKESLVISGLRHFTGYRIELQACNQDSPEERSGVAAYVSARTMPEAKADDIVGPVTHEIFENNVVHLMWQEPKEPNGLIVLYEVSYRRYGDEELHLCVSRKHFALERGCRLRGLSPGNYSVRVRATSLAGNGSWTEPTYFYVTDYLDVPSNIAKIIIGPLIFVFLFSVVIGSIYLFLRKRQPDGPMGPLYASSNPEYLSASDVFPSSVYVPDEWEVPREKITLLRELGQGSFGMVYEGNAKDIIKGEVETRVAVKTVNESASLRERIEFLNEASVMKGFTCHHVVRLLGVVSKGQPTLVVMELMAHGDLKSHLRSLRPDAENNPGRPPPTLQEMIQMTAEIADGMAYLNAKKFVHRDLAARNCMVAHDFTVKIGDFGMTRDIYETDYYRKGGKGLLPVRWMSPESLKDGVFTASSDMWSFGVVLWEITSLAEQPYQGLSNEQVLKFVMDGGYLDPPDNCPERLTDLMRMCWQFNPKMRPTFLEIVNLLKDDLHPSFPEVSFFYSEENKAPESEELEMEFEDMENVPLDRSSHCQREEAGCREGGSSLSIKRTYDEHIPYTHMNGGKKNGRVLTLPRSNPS

human insulin (from UniProt P01308 25-54; P01308 90-110) (ligand)
ALPHAScreen readout of tyrosine phosphorylation of 85 nM biotinylated IRS fragment by the insulin-stimulated receptor [1]: 10 nM

protein kinase C (serine kinase PKCδ)
phosphorylation of the biotinylated IRS-1 fragment (ALPHAScreen, p-Ser antibody) [2]: can be phosphorylated in the biotinylated state by the serine kinase PKCδ
